What follows are binders tested against T1, HLA-A*02:01 (human) (assay: UV peptide-exchange ELISA).
T1 construct: MHC class I monomer of the UV-ligand exchange assay; also called peptide-receptive MHC molecules; MHC class I
Description: Candidate peptides for T cell based therapies according to the present invention were further tested for their MHC binding capacity (affinity). The individual peptide-MHC complexes were produced by UV-ligand exchange, where a UV-sensitive peptide is cleaved upon UV-irradiation, and exchanged with the peptide of interest as analyzed. Only peptide candidates that can effectively bind and stabilize the peptide-receptive MHC molecules prevent dissociation of the MHC complexes. To determine the yield of the exchange reaction, an ELISA was performed based on the detection of the light chain (β2m) of stabilized MHC complexes. The assay was performed as generally described in Rodenko et al. (Rodenko et al., 2006).
96 well MAXISorp plates (NUNC) were coated over night with 2 ug/ml streptavidin in PBS at room temperature, washed 4× and blocked forl h at 37° C. in 2% BSA containing blocking buffer. Refolded HLA-A*02:01/MLA-001 monomers served as standards, covering the range of 15-500 ng/ml. Peptide-MHC monomers of the UV-exchange reaction were diluted 100 fold in blocking buffer. Samples were incubated for 1 h at 37° C., washed four times, incubated with 2 ug/ml HRP conjugated anti-β2m for 1 h at 37° C., washed again and detected with TMB solution that is stopped with […]. Absorption was measured at 450 nm. Candidate peptides that show a high exchange yield (preferably higher than 50%, most preferred higher than 75%) are generally preferred for a generation and production of antibodies or fragments thereof, and/or T cell receptors or fragments thereof, as they show sufficient avidity to the MHC molecules and prevent dissociation of the MHC complexes.
Work on KLLVQDFFL yielded a peptide exchange yield of 50 to 75%. With YVDDVFLRV the peptide exchange yield was no less than 75%. YLQEVPILTL was tested, and the peptide exchange yield was no less than 75%. With ALWELSLKI the peptide exchange yield was 50 to 75%. In the case of ALVSTIIMV, the peptide exchange yield is reported as 10 to 20%. With VLLSIPFVSV the peptide exchange yield was 50 to 75%. VMGDIPAAV showed a peptide exchange yield of 20 to 50%. LLGEFSIKM was tested, and the peptide exchange yield was 50 to 75%. In the case of YMFEEVPIVI, the peptide exchange yield is reported as no less than 75%. GLLQINDKIAL was tested, and the peptide exchange yield was 50 to 75%. Work on ILQAELPSL yielded a peptide exchange yield of 50 to 75%. TLYDMLASI showed a peptide exchange yield of 50 to 75%. Binder TVIENIHTI has a peptide exchange yield of 20 to 50%. VLMPTVYQQGV was tested, and the peptide exchange yield was 50 to 75%. Work on ILLKTEGINL yielded a peptide exchange yield of 50 to 75%. FTVPRVVAV gave a peptide exchange yield of 50 to 75%. ALGEEWKGYVV gave a peptide exchange yield of 20 to 50%. In the case of VLLSVPGPPV, the peptide exchange yield is reported as 50 to 75%. For YLLDQSFVM, the peptide exchange yield was no less than 75%. For ALWVSQPPEI, the peptide exchange yield was 50 to 75%. VLFFNVQEV gave a peptide exchange yield of 50 to 75%. VMDDQRDLI showed a peptide exchange yield of 20 to 50%. With YLGGFALSV the peptide exchange yield was no less than 75%. Binder IIADLDTTIMFA has a peptide exchange yield of 50 to 75%. Work on ALTKTNLQL yielded a peptide exchange yield of 50 to 75%. Binder YIFDGSDGGV has a peptide exchange yield of 50 to 75%. Work on WLAGDVPAA yielded a peptide exchange yield of 50 to 75%. With ALLNLLESA the peptide exchange yield was 50 to 75%. VVMGTVPRL gave a peptide exchange yield of 50 to 75%. With GLSQANFTL the peptide exchange yield was 50 to 75%. With ALWAGLLTL the peptide exchange yield was 50 to 75%. YIQEYLTLL gave a peptide exchange yield of 50 to 75%. TLLLGLTEV was tested, and the peptide exchange yield was 50 to 75%. With ALVDPGPDFVV the peptide exchange yield was 50 to 75%. HMQDVRVLL was tested, and the peptide exchange yield was 50 to 75%. With ALHRPDVYL the peptide exchange yield was 50 to 75%. Binder YLDNVLAEL has a peptide exchange yield of no less than 75%. For LLKDGPEIGL, the peptide exchange yield was 20 to 50%. Work on VMQDIVYKL yielded a peptide exchange yield of 50 to 75%. ALDEPPYLTV was tested, and the peptide exchange yield was 50 to 75%. Work on YLLLQTYVL yielded a peptide exchange yield of 10 to 20%. ILQERELLPV was tested, and the peptide exchange yield was 50 to 75%. Work on YQLELHGIEL yielded a peptide exchange yield of no less than 75%. VLAELPIIVV was tested, and the peptide exchange yield was 50 to 75%. RLQELTEKL showed a peptide exchange yield of 50 to 75%. Binder VMDTHLVNI has a peptide exchange yield of no less than 75%. TLVPPAALISI showed a peptide exchange yield of 50 to 75%. AMEALVVEV was tested, and the peptide exchange yield was 50 to 75%. TLDDDLDTV gave a peptide exchange yield of 20 to 50%. Binder ALPGGAAVAAV has a peptide exchange yield of no less than 75%. For YLDLSNNRL, the peptide exchange yield was 50 to 75%. LIDVKPLGV was tested, and the peptide exchange yield was 50 to 75%. YLVELSSLL showed a peptide exchange yield of no less than 75%. VMDPTKILI was tested, and the peptide exchange yield was no less than 75%. In the case of TLDPNQVSL, the peptide exchange yield is reported as 20 to 50%. VLSHNLYTV was tested, and the peptide exchange yield was 50 to 75%. ALPEILFAKV showed a peptide exchange yield of 50 to 75%. QVMEKLAAV was tested, and the peptide exchange yield was 50 to 75%. In the case of ALLSSQLAL, the peptide exchange yield is reported as 50 to 75%. Work on VLLGLEMTL yielded a peptide exchange yield of 50 to 75%. With VLDDRELLL the peptide exchange yield was 50 to 75%. Binder TLTFRVETV has a peptide exchange yield of 50 to 75%. In the case of YLTFLPAEV, the peptide exchange yield is reported as 50 to 75%. For VLAEQNIIPSA, the peptide exchange yield was 50 to 75%. With TLDTSKLYV the peptide exchange yield was 50 to 75%. Work on SVHKGFAFV yielded a peptide exchange yield of 50 to 75%. Work on VMLEMTPEL yielded a peptide exchange yield of 50 to 75%.
